Molecular target: STAT6 (pcDNA4-STAT6-mychis expression construct) (UniProt P42226)
Sequence of UniProt P42226 (P42226 whole entry): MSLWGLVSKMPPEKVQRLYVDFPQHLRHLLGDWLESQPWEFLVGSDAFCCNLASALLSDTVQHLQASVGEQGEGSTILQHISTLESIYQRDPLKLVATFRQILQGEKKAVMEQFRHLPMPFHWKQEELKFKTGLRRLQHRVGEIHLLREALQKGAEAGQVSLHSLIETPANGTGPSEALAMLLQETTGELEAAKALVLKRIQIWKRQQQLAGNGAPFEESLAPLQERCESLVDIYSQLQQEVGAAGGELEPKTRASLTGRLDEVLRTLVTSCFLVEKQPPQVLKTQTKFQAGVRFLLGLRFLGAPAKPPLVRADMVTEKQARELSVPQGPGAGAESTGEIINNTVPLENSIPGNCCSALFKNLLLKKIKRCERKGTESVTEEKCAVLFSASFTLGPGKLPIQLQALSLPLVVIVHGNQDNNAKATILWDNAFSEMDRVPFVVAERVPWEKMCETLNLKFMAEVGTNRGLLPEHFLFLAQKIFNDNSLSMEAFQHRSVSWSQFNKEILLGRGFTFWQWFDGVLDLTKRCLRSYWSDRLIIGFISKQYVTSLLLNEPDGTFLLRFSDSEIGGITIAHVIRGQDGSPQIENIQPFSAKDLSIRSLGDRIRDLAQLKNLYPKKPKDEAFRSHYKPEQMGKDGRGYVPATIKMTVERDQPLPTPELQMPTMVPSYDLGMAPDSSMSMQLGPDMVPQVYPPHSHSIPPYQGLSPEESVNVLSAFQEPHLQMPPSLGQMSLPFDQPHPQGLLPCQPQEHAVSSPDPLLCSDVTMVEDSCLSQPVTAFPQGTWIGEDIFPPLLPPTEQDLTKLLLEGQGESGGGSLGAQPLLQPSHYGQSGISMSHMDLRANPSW

HA-Tip-YYFY (Y127F) (natural protein) was tested, and the STAT6-responsive luciferase reporter in 293T cells transfected with Lck and Tip variants, against wildtype Tip (fold reduction) was 3.
